Laboratory results reported in the DeepSol protein solubility set.

experiment: soluble on expression in E. coli; label from the status in PepcDB or PDB records

Row | Sequence | soluble on expression in E. coli
1 | MLTDLEKNAIRDHYQNIGKNLPGFRPRASQREMIAAVANAFSRTLAREEGGEPPKREGESIAVIEGPTGVGKSLAYLLAGGIMAQTRGKRLIVSSATVALQEQLVDRDLPFLVEKSGLELTFALAKGRGRYLCPYKLYRLTQSNAQQNLLGFEAPAVLWDSKPKPEELKLLRDIADEFSARRFNGDRDTWPEKIDDAIWLKVTNDRHGCLKTACPNRPECPFYLARDVLETVDVVVANHDLLLADISMGGGVILPAPENSFYCIDEAHHLPKKALSRFAAEHSWNIAVWTLEKLPQLTGKIAALTDKAELANLADEAAASLLDSLHEWQFHLAEEPSLSLGVSENDRRTNSEPTWLWEDGKIPEGLETTVSNTAIAARSLLKHVIGLNDALSAARREKEQDGALLDRLTSEFGLFIARIEQISAVWDLLSTVPLEGEEPLAKWITRRADDKNDYIFNASPISSASHLANSLWRRAAGAVLTSATLQSLGNFNLMLRQTGLQWLPETTTLALKSPFDFEKQGELYIPPIYASPKDPEAHTAAVIEWLPKLISPTEAIGTLVLFSSRKQMQDVALRLPGDYLPLLLVQGELPKAVLLQKHHRAIEEGKASIIFGLDSFAEGLDLPGTACVQVIIAKLPFAMPDNPIEKTQNRWIEQRGGNPFIEITVPEAGIKLIQAVGRLIRTEQDYGRVTILDNRIKTQRYGQQLLAGLPPFKRIG | not soluble
2 | MGSDKIHHHHHHMFSIKRVIYYQELIRVGSFTKAAKALNISQAFLSQEIARLEIETERKLINRTTRQFSLTPFGQIFADKIQGMIKEHYELEQFVSSYEESTDGALLVGVIPIFNRLAHYNMFNLFQKAYPNIDISFIDGVSTDLLERVRNGEIHLSFSTPFDEYLNDPLFHHTICQIDDIVAVMATSHPLADNKTLSLPQLVKEKLIVPQKGTGEHAAVSESFTRQGINPSYFRECSNMDIIMDLVMNLSGVVFLCSSVAKSLTAYDVAVIPLEEQLKRTFAISYLKRSVNIPMVRLFLDFLQDYSESVR | not soluble
3 | MIYSMTAYARKEVKGDWGSAVWEIRSVNQRYLETYFRLPEQFRGLEPLLRERFRQRLSRGKIECHLRFEANPAAQSHLTINEGLAQQVINAANQIMHMTGELSRINPFQVMQWPGVMETPEQDMDAINQALLSAFDEGVDEFIAARGREGDNMKALIEQRLQAISAEVVKVRARMPEILEWQRERLFSKFEEAKIELDASRVEQELILLAQKSDVAEELDRLDSHVKEAREVLKKGGSCGRKLDFMMQEFNRESNTLASKSISTDITASGVELKVLIEQMREQIQNIE | not soluble
4 | MAKEKKRGFFSWLGLGRQSEEPAAEPLATEKEGVTEQEDVIEQTGVIEPTDVIEQTVEHVISEKTTEAPAENAFIEVELREQVAAVIPTEPNNAIMSEGVPDTLPERAVAESVVAELVETGDNAAIVHDEIIEPITQVTEAGGELSLVKPGIEGDTTEQGGPTDNLPKRSLTEDNLIIDVPTPQAVVEESRVDAVEQPTETSEVEEVEEVEEVEEVEEVEEKIIPVAAQEQERPTKEGFFARLKRSLIKTKQNLGSGFMGLFSGKKIDDDLFEELEEQLLIADVGVETTRKIITSLTEHTSRKQLKDADALYGKLKEEMSEILSKVDKPLDVSGKSPYVILMVGVNGVGKTTTIGKLARQFQAEGKSVMLAAGDTFRAAAVEQLQVWGERNKIAVVAQHTGADSASVIFDAIQAAKARGIDVLLADTAGRLQNKAHLMEELKKIVRVMKKLDGDAPHEVMLTLDASTGQNAVSQAKLFNEAVGLTGITLTKLDGTAKGGVIFAIADQFEIPIRYIGVGEGIEDLRPFKADEFIEALFARED | not soluble
5 | MGSDKIHHHHHHMKLHQGERVSFVKTIPSLQETEFSRLEERLCFAKHAHPTYSIGIMPLGLSLCQGEGETYFMGRHKVCVYHPGEEHTCVFEHTGGSWAYWNCYPKEEMLREYASEILGERGEPHFAKTVVEDPYAYRLFWELFDLVGKERELLALQEASLKAFSYLIAHHASPWHPSSRFLLMERAKITQAKERILEGDEVEKITLEELASLCGMSRFRFLRLFAKLEGMTPHRFLLMHKTQKAKRYLQEGCDISEAALLSGFCDQAHLSRTLRRFYGYTPRSLRS | not soluble
6 | MPTFRSNIVVFNLIARRAFTTTSTKNMGFVEKVRLLDYWKIQDSALQSEFPRSRLVLMVDRRLLVTKDQPDVQMVELSFDDLKQRLGEYGLQFDLSNSCLLDALSTDVDMIPLFGTSIDAADPPEDSPISKKEVLKQLGNSLGGRFTDIRMAMLTMREERQRNLLAKFQSLTKWASIYRRCPKCAAALKMRSSKSGAECVTCQRVYYPTFSPVSITLITDPTNEHALLVRHRGSAGGVFTAVAGFAHSGESMAECARREIAEEVGIEVDSIRSLDMSQPWPMPDSSLMIAHVAVAKIDQKISVCPDELETAQWFTRHQVKEALTTTLADPLLKNLPRTLDDRQTLHYIPPAGAIAHQMIRQWVDGKLENHNSRI | not soluble
7 | GPGYQDPKGRLYGTIGIQKRFYVSIDKIPEHVINAFVATEDRNFWHHFGIDPVAIVRAAIVNYRAGRIVQGGSTITQQLAKNLFLTRERTLERKIKEALLAIKIERTFDKKKIMELYLNQIYLGSGAYGVEAAAQVYFGKHVWELSLDEAALLAALPKAPAKYNPFYHPERALQRRNLVLKRMLEEGYITPEQYEEAVNK | soluble
8 | MASEHHEALNLYAVRVARGEGVKQDFARAASLFRRADRCGFNCEPVYDDMVNDFRDKAFGMELVSSKRAFLKALRPETAEARCTVGEAFIGQGDADSLRTGRELLTSAATLGSGKAMYLLGVLCRDGKGVAANAERAFMWFSLAASCGFAKAESERVNAEGKLDDAGRTRAMQLAARWRRQYLAPVCLEHHHHHH | not soluble
9 | MASWSHPQFEKGASTSLYKKAGRMSKFTWKELIQLGSPSKAYESSLACIAHIDMNAFFAQVEQMRCGLSKEDPVVCVQWNSIIAVSYAARKYGISRMDTIQEALKKCSNLIPIHTAVFKKGEDFWQYHDGCGSWVQDPAKQISVEDHKVSLEPYRRESRKALKIFKSACDLVERASIDEVFLDLGRICFNMLMFDNEYELTGDLKLKDALSNIREAFIGGNYDINSHLPLIPEKIKSLKFEGDVFNPEGRDLITDWDDVILALGSQVCKGIRDSIKDILGYTTSCGLSSTKNVCKLASNYKKPDAQTIVKNDCLLDFLDCGKFEITSFWTLGGVLGKELIDVLDLPHENSIKHIRETWPDNAGQLKEFLDAKVKQSDYDRSTSNIDPLKTADLAEKLFKLSRGRYGLPLSSRPVVKSMMSNKNLRGKSCNSIVDCISWLEVFCAELTSRIQDLEQEYNKIVIPRTVSISLKTKSYEVYRKSGPVAYKGINFQSHELLKVGIKFVTDLDIKGKNKSYYPLTKLSMTITNFDIIDLQKTVVDMFGNQVHTFKSSAG | soluble
10 | MKVMIEKILLVQTLKRLPRMGWLIKGVQEPESIADHSFGVAFITLVLADVLEKRGKRIDVEKALKMAIVHDLAEAIITDIPLSAQEFVDKDKAEALVFKKVFPEFYELYREYQECSSPEAQLVRIADKLDMILQAYQYELSGNKNLDEFWEAIEEIKRLELSKYLEDILNSVGRLKA | soluble
11 | MAHHHHHHMADSYENDEDVLQMIQQIKKITKESKRKFENEIDYLVEDTKTNLLTHVDDEKNCIKKEAEEKLNSYRENLIKYEKGINEKRRHYLKLKAELATVVNNYKKRMKVGPACTCVERFTCACGEVYTRVEVYTLVKLHTLVKPPTRLLSPQDFNQETENFKQTYEREKKELEDLEDREWSELNTHCVELLSKTKSNICATKNETNKKLRKVLNSIM | not soluble
12 | MGSDKIHHHHHHMSFMDQIPGGGNYPKLPVECLPNFPIQPSLTFRGRNDSHKLKNFISEIMLNMSMISWPNDASRIVYCRRHLLNPAAQWANDFVQEQGILEITFDTFIQGLYQHFYKPPDINKIFNAITQLSEAKLGIERLNQRFRKIWDRMPPDFMTEKAAIMTYTRLLTKETYNIVRMHKPETLKDAMEEAYQTTALTERFFPGFELDADGDTIIGATTHLQEEYDSDYDSEDNLTQNGYVHTVRTRRSYNKPMSNHRNRRNNNPSREECIKNRLCFYCKKEGHRLNECRARKASSNRS | not soluble
13 | MAHHHHHHMNFLGGSLRSGGGHRREKGFSAKNKVQQYHGDGSESIVLAGRPFRVLQKISDVPPPYMVTRQRSTKYGEGGSSYVYLVENTSHLPEFPRHLALKRSFFGVDQVMEAHKEVEIVSRIEDKNIVCVYHSEISRSEGRLGVSIAMEYCSNNLYHRIRSSAGTGIVTRLTEAEICHVMFAVTSAVGYLHAQQPPITHRDIRPENILINNKHAGPTAYKLTNFGNATTEAYQCETREEANMAIADIQMHTNPAFRAPEMADPWSKKRICEKTDMWSMGVLLYYMMYMSLPFDPSTTIVKDWALTFPSEATASYTPSLRVITEHLLDPDPCSRWDVFALINYMRFDEDCSRHLGTFCFTKTEWPEGWEEHDVKVLGRTPPPKAPPVSYNEPGHEQLDSRGLRGQERVHGHTNGHQPPDDRGNGRDSAVVDGAAVQEAMIVLGGDPADDDPAVAKYRHQIIMVQQEAWRRAKAAAGLRDSPPTEPQESSAAPAPTRANNEAQKDVFDDLFASASPTVFPTSQASPAMGPSAPPATHQPPEKDVFSASDLFSTSAPQLDPSYPVMNTYGQAPQQMAMGGWGSGAPVMGSGGYPMQQPQNQQQAPWGYGVSNANNYAPPLPPQQQQQQQLQPFTNFLPPLSGQQPGQQQSQQQETSQPRTARATAKRDPFADLFN | not soluble
14 | SAQQRALPQSKETLLQSYNKRLKDDIKSIMDNFTEIIKTAKIEDETQVSRATQGEQDNYEMHVRAANIVRAGESLMKLVSDLKQFLILNDFPSVNEAIDQRNQQLRTLQEECDRKLITLRDEISIDLYELEEEYYSSRYK | soluble
15 | MSYSDYPSDIADYSSFDNMMADICNPSSSSSSNRKRQADPAPDNFAKIPAGMATQPLYFPIHYPVNSGWQSFDVNQVYNNHNMNQPGFGWVALPPPMPHNLQIPDQNSYKPRSGLPVPPPMAEFQDVNGIQQNPNEIFKNAPITSAMCTPESDISTSTNLTPDQDSAQLPLTEQELNEEKNFVVNIESPGKLAHYFLPNVESEQEPNEHIPYPYAKSLFPTFGVPVSSDGNVVAEVVDGRLPAVGTRSKYDITVDEIRRRCGAPEHMNQSALYCFFRKSKKREAINRVKQVLTVHNIPMRTMQRQRKVTCFSPFLEEEATALARDLDSISEEFLPINIIAQEMLEKLMSSGNNLDVCHRMLKNTTATITRVIKTLEVRQPKITGQEEKLKGNNLDLSYHNFSLITHGFGHPNSLSHYRSYLSIVERAVLLCEKIQNGQSLLSNEDVIPGQKPFERMSNEYFVEWQMNLYKKKLAKQMEEVEENKSQRGEHQQIHQHQLYQQHHTNTHPPMPLMPPSQMNLCPPITPIPPQNVYYY | not soluble
16 | MKLEASLKHFSPQGMHISDSVKETSPDRLTGTDIMVAIGTTSSRARFGLAAFFGKAGISKTDEQLAVQALVRHAMDTAPKNVRKAAGGEFGWCMLVLAQFAFAEYSRSAATSVTCHTCKGSGRITRTQTTRKVSYPWGKAPYWASKSRAVRPSDWEKWTEVTEIVPAVCEACDGKGTISARCRCGGKGEVLDRIATKERGVPVFKTCERCSGEGYSRVSSATVHRAILKRLPDLHQSSWSRNWKPFYEMLVDVLYKGERQAASEFEKATAY | not soluble
17 | MKELTNEELRGIQLEQLKYIDRICRENGIEYTLAGGSLIGAIRHGGYIPWDDDIDIELTRPHYDHLISVLMDQLPNEKYALLHYKVRETYLPFAKLYDTRTSFTSKIDNLNRGTGVFLDIFPMDILPDNEEERQVFKKEFLKKAIQLTASNPHGLDFASSSKKIYFWGKLVLWMPQHIRFYGKYRILAEKLDEFMQKYRNSDNQLISYLYTGYKKAIFPKEIWEEYEDVKFEGLTARKLKNHEEYLTRQYGDYMKLPPENERVNHDYYKWYWKEKNEILEHHHHHH | soluble
